In patent publication US20210277098A1 (MITSUBISHI TANABE PHARMA, published 2021):
No end group written: not given here. *: point of attachment. Biotin = O=C1N[C@H]2[C@H](CS[C@H]2CCCCC(=O)*)N1

T1: mouse RGMa protein (R&D systems, 2458-RG) (mouse) (UniProt Q6PCX7)
T1 sequence: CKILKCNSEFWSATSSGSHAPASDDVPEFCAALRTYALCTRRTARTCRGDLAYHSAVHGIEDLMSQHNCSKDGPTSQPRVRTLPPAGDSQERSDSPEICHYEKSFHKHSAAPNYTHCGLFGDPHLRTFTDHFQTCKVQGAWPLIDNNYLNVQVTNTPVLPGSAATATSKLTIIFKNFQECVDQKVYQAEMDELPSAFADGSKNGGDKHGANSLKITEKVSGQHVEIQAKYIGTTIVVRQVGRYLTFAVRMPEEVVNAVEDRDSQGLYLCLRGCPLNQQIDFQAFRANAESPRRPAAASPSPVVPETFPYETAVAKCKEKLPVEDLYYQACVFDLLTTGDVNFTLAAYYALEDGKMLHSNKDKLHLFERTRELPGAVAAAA

T2: Human RGMa protein (R&D systems, 2459-RM) (human, UniProt Q96B86 48-422, limits assumed)
T2 construct: Bought protein; also called Recombinant RGMa protein
T2 sequence: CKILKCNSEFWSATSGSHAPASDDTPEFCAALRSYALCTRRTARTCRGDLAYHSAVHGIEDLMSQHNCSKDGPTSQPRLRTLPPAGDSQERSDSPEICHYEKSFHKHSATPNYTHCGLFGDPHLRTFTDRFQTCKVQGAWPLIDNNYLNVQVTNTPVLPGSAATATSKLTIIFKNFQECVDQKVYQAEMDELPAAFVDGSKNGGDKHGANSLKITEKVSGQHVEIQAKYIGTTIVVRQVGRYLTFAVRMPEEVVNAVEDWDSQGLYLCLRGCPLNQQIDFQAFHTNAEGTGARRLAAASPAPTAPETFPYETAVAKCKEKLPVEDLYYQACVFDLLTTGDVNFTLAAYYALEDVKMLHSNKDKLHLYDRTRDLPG

T3: C-terminal domain of human RGMa protein (prepared in Example 1), Pro 169 to Gly 422 with C-terminal histidine … (human, UniProt Q96B86 169-422)
T3 construct: Secreted from CHO cells and purified on a nickel column; also called Human RGMa C-terminal domain; recombinant human RGMa protein; not shown: histidine tag at the C terminus
T3 sequence: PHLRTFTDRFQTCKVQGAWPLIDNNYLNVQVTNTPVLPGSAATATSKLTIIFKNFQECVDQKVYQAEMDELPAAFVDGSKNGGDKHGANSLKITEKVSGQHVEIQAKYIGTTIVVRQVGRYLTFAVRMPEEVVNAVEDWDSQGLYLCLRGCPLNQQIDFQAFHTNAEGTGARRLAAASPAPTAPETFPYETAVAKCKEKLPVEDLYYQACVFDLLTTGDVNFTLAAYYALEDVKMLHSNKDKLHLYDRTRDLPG

T4: biotinylated SGSG-spacer peptide of human RGMa Glu 298 to Asp 308 (human)
T4 construct: One of 83 peptides of 11 residues, immobilised on avidin-coated plates
T4 peptide: Biotin-SGSGEEVVNAVEDWD

T5: biotinylated SGSG-spacer peptide of human RGMa Asn 322 to Thr 332 (human)
T5 construct: One of 83 peptides of 11 residues, immobilised on avidin-coated plates
T5 peptide: Biotin-SGSGNQQIDFQAFHT

T6: biotinylated SGSG-spacer peptide of human RGMa Ile 325 to Glu 335 (human)
T6 construct: One of 83 peptides of 11 residues, immobilised on avidin-coated plates
T6 peptide: Biotin-SGSGIDFQAFHTNAE

T7: biotinylated SGSG-spacer peptide of human RGMa Lys 367 to Ala 377 (human)
T7 construct: One of 83 peptides of 11 residues, immobilised on avidin-coated plates
T7 peptide: Biotin-SGSGKLPVEDLYYQA

T8: biotinylated SGSG-spacer peptide of human RGMa Val 301 to Gly 311 (human)
T8 construct: One of 83 peptides of 11 residues, immobilised on avidin-coated plates
T8 peptide: Biotin-SGSGVNAVEDWDSQG


How the values were obtained:
[1] = target: Human RGMa protein (R&D systems, 2459-RM) (human) (UniProt Q96B86); test: SPR (Proteon XPR36), antigen amine-coupled on a GLC chip, antibody as analyte
[2] = target: T1, mouse RGMa protein (R&D systems, 2458-RG) (mouse); test: as above
[3] = target: T2, Human RGMa protein (R&D systems, …); test: as above
Description: (§1) The affinity of the test antibodies (r116A3 and r70E4) and r5F9 (Comparative Example) for RGMa protein were measured by the surface plasmon resonance (SPR) method using Proteon XPR36 (Bio-Rad).
(§2) Human RGMa protein (R&D Systems, 2459-RM), the C-terminal domain of human RGMa protein (prepared in Example 1) or mouse RGMa protein (R&D Systems, 2458-RG) diluted to 10 μg/mL with 10 mM acetate buffer (pH4.5) was immobilized on a GLC sensor chip by amine coupling method.

[4] = target: T3, C-terminal domain of human RGMa protein …; test: as above
Description: as §1, §2

[5] = target: T1, mouse RGMa protein (R&D systems, 2458-RG) (mouse); test: SPR (Proteon XPR36), ratio of Kd values against r5F9
[6] = target: T4, biotinylated SGSG-spacer peptide of …; test: peptide scanning ELISA, biotinylated peptides on avidin-coated plates
Description: (§3) Epitopes to which the antibodies bind were determined by the peptide scanning method. A total of 83 kinds of peptides were synthesized by fusing the N-terminal side of the amino acid sequences consisting of 11 consecutive residues shifted by 3 residues contained in Arg 172 to Ala 424 of the human RGMa protein (SEQ ID NO: 1 in Sequence Listing) with a spacer sequence (SGSG) with biotinylated N terminus (SEQ ID NO: 46 in Sequence Listing). After immobilizing the peptides on avidin-coated plates, the test antibodies (B5.116A3 and B5.70E4) were allowed to react. Subsequently, a peroxidase-labeled rabbit anti-mouse Ig antibody (Dako, P026002) was allowed to react. After a substrate solution was added and color developed for a certain time, the absorbance was measured with a plate reader.

[7] = target: T5, biotinylated SGSG-spacer peptide of …; test: as above
Description: as §3

[8] = target: T6, biotinylated SGSG-spacer peptide of …; test: as above
Description: as §3

[9] = target: T7, biotinylated SGSG-spacer peptide of …; test: as above
Description: as §3

[10] = target: T8, biotinylated SGSG-spacer peptide of …; test: as above
Description: as §3

Row | Molecule | Kd [1] | Kd [2] | Kd [3] | Kd [4] | times stronger binding than r5F9 [5] | binding result [6] | binding result [7] | binding result [8] | binding result [9] | binding result [10]
1 | recombinant mouse antibody r70E4 (antibody, mouse IgG2b, kappa, V domains shown, Recombinant form of B5.70E4 expressed in HEK293F cells) VH: DVKLQESGPGLVKPSQSLSLTCSVTGYSITTSYYWNWIRQFPGNKLEWMGYISYDGTNNYNPSLKNRISITRDTSKNQFFLRLNSVTTEDTATYYCAGSFGYSQGTLVTVSA VL: DVVMTQTPLSLPVSLGDQASISCRSSQSLVHSNGNTYLHWYLQRPGQSPKLLIYKVSNRFSGVPDRFSGSGSGTDFTLKISRVEAEDLGLYFCSQSTHVPYTFGGGTKLEIKR | – | 174 nM | 2.43 nM | 1.12 nM | – | – | – | – | – | –
2 | mouse anti-human RGMa monoclonal antibody B5.116A3 (antibody, mouse IgG2b, kappa, V domains shown) VH: EVKLEESGGGLVQPGGSMKLSCAASGFTFSDAWMDWVRQSPEKGLEWVAEIRSKANNHATYYAESVKGRFTISRDDSKRSVYLQMNNLRAEDTGIYYCTRRDGAYWGQGTLVTVSA VL: DIQMTQTTSSLSASLGDRVTISCRASQDISSYLNWYQQKPDGTVKLLIYYTSRLHSGVPSRFSGSGSGTDYSLTISNLEQEDIATYFCQQLNTLPWTFGGGTKLEIKR | – | – | – | – | – | binds | binds | binds | binds | binds

Continued, values first:

Row | Kd [1] | Kd [2] | Kd [3] | Kd [4] | times stronger binding than r5F9 [5] | binding result [6] | binding result [7] | binding result [8] | binding result [9] | binding result [10] | Molecule
3 | 1.59 nM | 8.98 nM | – | – | – | – | – | – | – | – | recombinant rat mouse chimeric antibody r5F9 (Comparative Example)
4 | – | 0.201 nM | 0.0487 nM | 0.0568 nM | 44 times | – | – | – | – | – | recombinant mouse antibody r116A3 (antibody, mouse IgG2b, kappa, V domains shown, Recombinant form of B5.116A3 expressed in HEK293F cells) VH: EVKLEESGGGLVQPGGSMKLSCAASGFTFSDAWMDWVRQSPEKGLEWVAEIRSKANNHATYYAESVKGRFTISRDDSKRSVYLQMNNLRAEDTGIYYCTRRDGAYWGQGTLVTVSA VL: DIQMTQTTSSLSASLGDRVTISCRASQDISSYLNWYQQKPDGTVKLLIYYTSRLHSGVPSRFSGSGSGTDYSLTISNLEQEDIATYFCQQLNTLPWTFGGGTKLEIKR
